Assay results published in paper doi:10.1101/2023.07.13.548819, “Trafficking Machinery is Rapidly Primed to Facilitate Polarised IL-6 Secretion in Dendritic Cells” (bioRxiv, 2023).

Target: T1, cytosolic fragment of human STX4 (residues 1-271 with 272C) (human, UniProt Q12846 1-271)
T1 construct: human STX4 lacking the transmembrane domain, residues 1-271; synthetic gene in NdeI/XhoI of pET28a(+); cysteine at position 272 ('residues 1-271 with 272C')
T1 chain: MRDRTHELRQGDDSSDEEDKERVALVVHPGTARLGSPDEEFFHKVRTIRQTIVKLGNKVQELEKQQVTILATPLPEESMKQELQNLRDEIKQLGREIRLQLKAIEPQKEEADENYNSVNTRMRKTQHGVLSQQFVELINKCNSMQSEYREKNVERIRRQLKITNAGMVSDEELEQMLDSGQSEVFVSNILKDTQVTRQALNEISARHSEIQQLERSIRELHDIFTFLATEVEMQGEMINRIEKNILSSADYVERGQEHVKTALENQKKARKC
Test: SEC; 100 mM (so in the source) of each protein mixed, overnight at RT; ENrich SEC 70 column in 20 mM HEPES pH 7.4, 100 mM NaCl, 0.2 mM TCEP, 1% CHAPS
Settings: both partners purified

B1: VAMP2(49-96) (domain or fragment, UniProt P63045 49-96, looked up)
chain: NVDKVLERDQKLSELDDRADALQAGASQFETSAAKLKRKYWWKNLKMM
notes: VAMP2, C-terminal half of the SNARE motif, residues 49-96; construct described previously (Pobbati, Stein and Fasshauer, 2006); that fragment is, as far as I recall, from rat; also called C-terminal half of the SNARE motif of VAMP2 (residues 49-96)
- binding result: binds
